This test addresses the unphosphorylated T-PY motif (Smad2 or Smad3 peptide). The experiment in a line: ITC. In general terms: In ITC the heat of successive injections is recorded.

The substance “recombinant Nedd4L WW2 domain (domain or fragment)” came in with a fold lower affinity than for the pT-PY motif peptide of 7 to 15 fold.
